The target in test [1] is T1, hOrai1-mOrai1 ECL2 (…) protein (human/mouse chimera, UniProt Q96D31 1-301).
T1 construct: also called Ch
The test is described as follows: FACS, 293EBNA. The arrangement: concentration or dose not given beside the values. The text has this:
(§1) FIG. 17A-D illustrates the results of FACS analysis showing binding to the indicated mOrai1-hOrai1 ECL2 chimeric mutants expressed on the surface of HEK-293-EBNA cells. Transfected cells were stained first with recombinant monoclonal antibodies then counter-stained with a secondary phycoerythrin-labeled goat (“Gt”) anti-human (“Hu”) IgG F(ab′)₂ antibody fragment and visualized using FACS.
(§2) Representative results of FACS analysis of binding to the mutant hOrai1-mOrai1 ECL2 chimera described above by exemplary anti-hOrai1 antibodies of the present invention are shown in FIG. 17A-D, Table 10A and Table 10B below. Table 10A (Campaign 1) and Table 10B (Campaign 2) show the gain in binding ability of exemplary monoclonal antibodies to hOrai 1-mOrai 1 ECL2 chimera mutants as determined by FACS.
In general terms: Flow cytometry measures light scatter and fluorescence of single cells or particles in a stream.

Test [2] deals with T2, hOrai1-mOrai1 ECL2 (GAA) protein (human/mouse chimera, UniProt Q96D31 1-301).
T2 construct: also called Ch
The test is described as follows: FACS, 293EBNA. The arrangement: concentration or dose not given beside the values.
Description: as §1, §2

Test [3] has as its target T3, hOrai1-mOrai1 ECL2 (AANVST) protein (human/mouse chimera, UniProt Q96D31 1-301).
T3 construct: also called Ch
Description: FACS, 293EBNA. Further details: concentration or dose not given beside the values.
Description: as §1, §2

The target in test [4] is T4, hOrai1-mOrai1 ECL2 chimeric protein (human/mouse chimera, UniProt Q96D31 1-301).
T4 construct: human Orai1 with mouse ECL2; also called Ch
The test is described as follows: FACS, 293EBNA. The arrangement: concentration or dose not given beside the values.
Description: as §1, §2

Test [5] has as its target T5, hOrai1-mOrai1 ECL2 (VST) protein (human/mouse chimera, UniProt Q96D31 1-301).
T5 construct: also called Ch
The test is described as follows: FACS, 293EBNA. The arrangement: concentration or dose not given beside the values.
Description: as §1, §2

For test [6], the target named is T6, hOrai1-mOrai1 ECL2 (PASGAA) protein (human/mouse chimera, UniProt Q96D31 1-301).
T6 construct: also called Ch
The test is described as follows: FACS, 293EBNA. The arrangement: concentration or dose not given beside the values.
Description: as §1, §2

The target in test [7] is T7, mOrai1-hOrai1 ECL2 chimeric protein (human/mouse chimera, UniProt Q8BWG9 1-304 (mouse entry)).
T7 construct: mouse Orai1 with human ECL2; also called Ch
Description: FACS, 293EBNA, RFI-POC grade. The text has this: (§3) FIG. 16A-D illustrates the results of FACS analysis showing binding to the indicated mOrai1-hOrai1 ECL2 chimeric mutants expressed on the surface of HEK-293-EBNA cells. Transfected cells were stained first with recombinant monoclonal antibodies then counter-stained with a secondary phycoerythrin-labeled goat (“Gt”) anti-human (“Hu”) IgG F(ab′)₂ antibody fragment and visualized using FACS. In FIG. 16B and FIG. 16D, The values of Relative Fluorescence Intensity as Percent of Control (RFI-POC) are calculated from the relative fluorescence intensity geometric mean (Geo Mean). The geometric mean is an average calculated by multiplying a series of numbers and taking the nth root where n is the number of numbers in the series. It is a statistical average of a set of transformed numbers often used to represent a central tendency in a highly variable data set that minimizes the effects of extreme values.
(§4) Table 11A and Table 11B feature a schematic representation of the POC data from FIG. 16B and FIG. 16D, respectively, where the binding results are recorded as (+++) denoting binding POC from 40% to 100%, (++) for POC of 5% to less than 40%, (+) for POC from 1% to less than 5% and (−) as lack of binding with POC less than 1%.

For test [8], the target named is T8, mOrai1-hOrai1 ECL2 (HSD) protein (human/mouse chimera, UniProt Q8BWG9 1-304 (mouse entry)).
T8 construct: also called Ch
Description: FACS, 293EBNA, RFI-POC grade.
Description: as §3, §4

Test [9] addresses T9, mOrai1-hOrai1 ECL2 (VIV) protein (human/mouse chimera, UniProt Q8BWG9 1-304 (mouse entry)).
T9 construct: also called Ch
The test is described as follows: FACS, 293EBNA, RFI-POC grade.
Description: as §3, §4

Test [10] deals with T10, human Orai1 (human, UniProt Q96D31 1-301). The test is described as follows: cell-based or functional assay.
In test [11] the target is T10, human Orai1. The test is described as follows: KinExA, AM1-CHO/hOrai1/hSTIM1-YFP cells. How it is done:
Each equilibrium sample set was read in triplicate on the KinExA machine. For low [Ab] equilibrium samples 4 mL was run of each sample in triplicate. For high [Ab] equilibrium samples 300 μL was run of each sample in triplicate. […] For each equilibrium sample the free [Ab] would be detected by first running the coated beads through the flow cell, then after quick wash with the running buffer (1×PBS pH7.4+1% BSA+0.05% Sodium Azide) the equilibrium samples were passed through the beads followed by a quick wash with the running buffer. Then the secondary detection Ab, Gt anti Hu (H+ L) Cy5, was run through the flow cell at 1 μg/mL and 1000 μL per run. The KinExA voltage output signal was then used in KinExA software to calculate the Kd values for each antibody. From the plots at two different initial total [Ab] concentrations the Kd was obtained from curve fitting using n-curve analysis in KinExA Pro software (Sapidyne Instruments Inc., Boise Id.).
Background: Kinetic exclusion samples the free partner from a solution-phase mixture.

Residue numbers refer to the chain shown, from its start.

As a reminder, the Kd is a measure of binding affinity in units of concentration.

T10 sequence (Q96D31 whole entry): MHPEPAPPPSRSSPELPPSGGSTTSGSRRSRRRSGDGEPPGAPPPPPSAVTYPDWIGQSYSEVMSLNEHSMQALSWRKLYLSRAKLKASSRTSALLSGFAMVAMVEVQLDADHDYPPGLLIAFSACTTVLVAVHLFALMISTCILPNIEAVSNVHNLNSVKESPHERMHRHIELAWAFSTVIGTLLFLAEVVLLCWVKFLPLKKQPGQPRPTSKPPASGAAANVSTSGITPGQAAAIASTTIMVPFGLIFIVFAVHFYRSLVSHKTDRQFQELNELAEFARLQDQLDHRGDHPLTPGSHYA
T9 sequence (Q8BWG9 other isoform, or with tags, fused parts or gaps): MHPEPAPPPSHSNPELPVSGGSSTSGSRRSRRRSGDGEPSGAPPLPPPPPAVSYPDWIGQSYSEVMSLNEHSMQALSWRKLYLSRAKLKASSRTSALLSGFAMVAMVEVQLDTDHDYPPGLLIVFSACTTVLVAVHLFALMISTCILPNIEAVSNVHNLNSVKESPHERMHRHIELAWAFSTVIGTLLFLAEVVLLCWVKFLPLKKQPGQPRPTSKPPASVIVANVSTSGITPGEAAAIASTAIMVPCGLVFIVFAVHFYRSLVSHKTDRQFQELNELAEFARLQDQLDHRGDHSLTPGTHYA
T8 sequence (Q8BWG9 other isoform, or with tags, fused parts or gaps): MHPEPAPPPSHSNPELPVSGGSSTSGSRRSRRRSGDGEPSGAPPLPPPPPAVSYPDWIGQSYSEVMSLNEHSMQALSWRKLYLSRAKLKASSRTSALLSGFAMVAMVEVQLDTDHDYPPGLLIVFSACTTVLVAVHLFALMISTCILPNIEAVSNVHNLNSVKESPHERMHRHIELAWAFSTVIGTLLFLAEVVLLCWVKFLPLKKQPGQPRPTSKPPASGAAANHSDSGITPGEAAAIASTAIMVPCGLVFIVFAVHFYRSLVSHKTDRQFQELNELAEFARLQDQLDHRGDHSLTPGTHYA
T7 sequence (Q8BWG9 other isoform, or with tags, fused parts or gaps mutant): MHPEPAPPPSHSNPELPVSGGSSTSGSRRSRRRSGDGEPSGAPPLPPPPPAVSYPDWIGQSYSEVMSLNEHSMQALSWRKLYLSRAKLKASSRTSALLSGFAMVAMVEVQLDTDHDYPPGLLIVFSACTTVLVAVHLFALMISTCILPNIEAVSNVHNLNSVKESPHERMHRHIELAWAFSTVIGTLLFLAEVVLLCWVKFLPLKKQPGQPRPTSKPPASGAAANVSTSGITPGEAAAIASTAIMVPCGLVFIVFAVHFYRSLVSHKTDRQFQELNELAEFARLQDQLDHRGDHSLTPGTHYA
T3 sequence (Q96D31 other isoform, or with tags, fused parts or gaps): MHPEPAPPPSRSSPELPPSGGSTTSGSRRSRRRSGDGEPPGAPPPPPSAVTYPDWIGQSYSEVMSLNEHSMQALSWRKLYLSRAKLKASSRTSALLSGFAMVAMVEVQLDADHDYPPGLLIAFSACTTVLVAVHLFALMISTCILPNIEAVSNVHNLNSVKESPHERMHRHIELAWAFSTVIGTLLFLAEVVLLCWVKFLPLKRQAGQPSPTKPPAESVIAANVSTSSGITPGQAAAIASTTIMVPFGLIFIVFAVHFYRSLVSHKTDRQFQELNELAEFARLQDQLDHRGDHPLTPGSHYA
T1 sequence (Q96D31 other isoform, or with tags, fused parts or gaps): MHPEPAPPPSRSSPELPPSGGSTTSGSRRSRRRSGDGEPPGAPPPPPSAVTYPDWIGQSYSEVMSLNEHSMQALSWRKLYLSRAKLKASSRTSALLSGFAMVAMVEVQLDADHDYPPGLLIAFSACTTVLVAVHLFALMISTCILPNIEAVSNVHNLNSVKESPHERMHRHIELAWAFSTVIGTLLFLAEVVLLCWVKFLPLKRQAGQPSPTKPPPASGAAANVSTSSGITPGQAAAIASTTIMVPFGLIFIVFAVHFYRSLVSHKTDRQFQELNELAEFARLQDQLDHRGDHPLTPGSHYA
T4 sequence (Q96D31 other isoform, or with tags, fused parts or gaps mutant): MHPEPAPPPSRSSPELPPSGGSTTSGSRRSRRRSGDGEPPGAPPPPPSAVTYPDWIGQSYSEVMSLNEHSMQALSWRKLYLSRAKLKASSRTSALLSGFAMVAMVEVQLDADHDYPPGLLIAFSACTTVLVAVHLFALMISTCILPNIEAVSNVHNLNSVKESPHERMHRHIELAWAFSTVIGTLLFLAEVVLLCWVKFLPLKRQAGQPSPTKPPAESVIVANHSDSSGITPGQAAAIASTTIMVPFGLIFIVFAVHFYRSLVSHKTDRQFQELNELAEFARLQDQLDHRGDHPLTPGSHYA
T5 sequence (Q96D31 other isoform, or with tags, fused parts or gaps): as the sequence (Q96D31 other isoform, or with tags, fused parts or gaps mutant) above, with H224V, D226T counted along it
T6 sequence (Q96D31 other isoform, or with tags, fused parts or gaps): as the sequence (Q96D31 other isoform, or with tags, fused parts or gaps mutant) above, with A216P, E217A, V219G, I220A, V221A counted along it
T2 sequence (Q96D31 other isoform, or with tags, fused parts or gaps): as the sequence (Q96D31 other isoform, or with tags, fused parts or gaps mutant) above, with V219G, I220A, V221A counted along it

B1: mAb 2D2.1 (antibody, human IgG2, lambda, V domains shown)
VH: QVQLQQWGAGLLKPSETLSLTCAVYGGSFSGYYWSWIRQPPGKGLEWIGEIDHSGRINYNPALKSRLTISVDTSKNQFSLKLSSVTAADTAVYYCARAGSGGYEDWFDPWGQGTLVTVSS
VL: QSVLTQPPSVSGAPGQRVTISCTGSSSNIGAGYNVHWYQQFPRTDPKLLIYVYNIRPSGVPDRFSGSRSGTSASLAITGLQTEDEADYYCQSYDSSLSGVVFGGGTKLTVLG
notes: fully human IgG2 lambda, Campaign 1; also called mAb 2D.1
As to B1, the “percent of control (POC) of FACS Geo Mean” value in test [1], in test [2], in test [3], in [4], in test [5] and in test [6] was < 1% each time. For the same molecule, the “POC (percent of control, FACS Geo Mean relative to Ch. 1)” value in [7], in test [8] and in test [9] was 40 to 100% in each case. For the same molecule, in the test with human Orai1 [10], the “IC50 IFN-g, whole blood Donor A, recombinant mAb” value worked out at 1.18 nM. Further, the “IC50 IFN-g, whole blood Donor B, recombinant mAb” value (“IC50 IFN-g, whole blood Donor B” below) in the test with human Orai1 [10] came to 1.1 nM. Moreover, the “IC50 IL-2, whole blood Donor A, recombinant mAb” value with human Orai1 [10] is 0.49 nM. Also, the “IC50 IL-2, whole blood Donor B, recombinant mAb” value (“IC50 IL-2, whole blood Donor B” for short) with human Orai1 [10] stood at 0.21 nM. The molecule further yielded a Kd in the test with human Orai1 [11] of 0.099 nM.

B2: mAb 2B7.1 (antibody, human IgG2, V domains shown)
VH: B1 VH with R56S, I57T
VL: B1 VL with A31T
notes: fully human, Campaign 1
B2: the “POC (percent of control, FACS Geo Mean relative to Ch. 1)” value in test [7] lay in the range of 40 to 100%. For the same molecule, the “POC (percent of control, FACS Geo Mean relative to Ch. 1)” value in test [8] was 40 to 100%. Further, in test [9], the “POC (percent of control, FACS Geo Mean relative to Ch. 1)” value lay within 40 to 100%. Besides, in the test with human Orai1 [10], the “IC50 IFN-g, whole blood Donor A, recombinant mAb” value is 5.27 nM; the “IC50 IFN-g, whole blood Donor B” value amounted to 3.93 nM; the “IC50 IL-2, whole blood Donor A, recombinant mAb” value came out at 2.06 nM; the “IC50 IL-2, whole blood Donor B” value worked out at 0.9 nM. In addition, binding in the test with human Orai1 [11] was put at a Kd of 0.1 nM.

B3: mAb 2C1.1 (antibody, human IgG2, lambda, V domains shown)
VH: B1 VH with R56S, I57T
VL: B1 VL
notes: fully human IgG2 lambda, Campaign 1; tested hybridoma-purified and recombinant; also called anti-hOrai1 mAb 2C1.1
Turning to B3, the “POC (percent of control, FACS Geo Mean relative to Ch. 1)” value in test [7] lay in the range of 40 to 100%. Besides, the “POC (percent of control, FACS Geo Mean relative to Ch. 1)” value in test [8] was 40 to 100%. Also, in [9], the “POC (percent of control, FACS Geo Mean relative to Ch. 1)” value was in the range of 40 to 100%. For the same molecule, in the test with human Orai1 [10], the “IC50 IFN-g, whole blood Donor A, recombinant mAb” value stood at 1.62 nM; the “IC50 IFN-g, whole blood Donor B” value is 1.61 nM; the “IC50 IL-2, whole blood Donor A, recombinant mAb” value was determined as 0.57 nM; the “IC50 IL-2, whole blood Donor B” value turned out to be 0.34 nM. This molecule showed a Kd with human Orai1 [11] of 0.04 nM.
